From IntAct's records for PubMed 19846556

B1: Peroxisome proliferator-activated receptor gamma coactivator 1-alpha (Homo sapiens), Q9UBK2 (parent)
chain: MAWDMCNQDSESVWSDIECAALVGEDQPLCPDLPELDLSELDVNDLDTDSFLGGLKWCSDQSEIISNQYNNEPSNIFEKIDEENEANLLAVLTETLDSLPVDEDGLPSFDALTDGDVTTDNEASPSSMPDGTPPPQEAEEPSLLKKLLLAPANTQLSYNECSGLSTQNHANHNHRIRTNPAIVKTENSWSNKAKSICQQQKPQRRPCSELLKYLTTNDDPPHTKPTENRNSSRDKCTSKKKSHTQSQSQHLQAKPTTLSLPLTPESPNDPKGSPFENKTIERTLSVELSGTAGLTPPTTPPHKANQDNPFRASPKLKSSCKTVVPPPSKKPRYSESSGTQGNNSTKKGPEQSELYAQLSKSSVLTGGHEERKTKRPSLRLFGDHDYCQSINSKTEILINISQELQDSRQLENKDVSSDWQGQICSSTDSDQCYLRETLEASKQVSPCSTRKQLQDQEIRAELNKHFGHPSQAVFDDEADKTGELRDSDFSNEQFSKLPMFINSGLAMDGLFDDSEDESDKLSYPWDGTQSYSLFNVSPSCSSFNSPCRDSVSPPKSLFSQRPQRMRSRSRSFSRHRSCSRSPYSRSRSRSPGSRSSSRSCYYYESSHYRHRTHRNSPLYVRSRSRSPYSRRPRYDSYEEYQHERLKREEYRREYEKRESERAKQRERQRQKAIEERRVIYVGKIRPDTTRTELRDRFEVFGEIEECTVNLRDDGDSYGFITYRYTCDAFAALENGYTLRRSNETDFELYFCGRKQFFKSNYADLDSNSDDFDPASTKSKYDSLDFDSLLKEAQRSLRR
partner: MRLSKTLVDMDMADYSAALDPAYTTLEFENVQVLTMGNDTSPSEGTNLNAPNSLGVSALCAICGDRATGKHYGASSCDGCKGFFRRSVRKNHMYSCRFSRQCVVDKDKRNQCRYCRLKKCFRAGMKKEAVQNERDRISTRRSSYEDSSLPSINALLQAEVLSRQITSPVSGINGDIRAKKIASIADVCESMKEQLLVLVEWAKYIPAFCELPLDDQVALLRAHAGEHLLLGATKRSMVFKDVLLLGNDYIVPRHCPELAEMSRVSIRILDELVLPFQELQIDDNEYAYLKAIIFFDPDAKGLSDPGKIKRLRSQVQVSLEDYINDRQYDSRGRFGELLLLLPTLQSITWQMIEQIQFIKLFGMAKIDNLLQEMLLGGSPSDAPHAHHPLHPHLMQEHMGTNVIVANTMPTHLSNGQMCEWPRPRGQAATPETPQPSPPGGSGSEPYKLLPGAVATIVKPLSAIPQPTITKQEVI

How the values were obtained:
[1] = variants of: B1; conditions: with hnf4a_human HNF4A
[2] = variants of: B1; conditions: with hnf4a_human HNF4A; remark: listed apart in the source

Row | Variant | effect of a mutation on the interaction [1] | effect of a mutation on the interaction [2]
1 | V91A;L92A;Y213A;L214A | decreasing interaction | decreasing interaction
2 | Y213A;L214A | decreasing interaction | –
3 | L147A;L148A | decreasing interaction | –
4 | L147A;L148A;Y213A;L214A | disrupting interaction | disrupting interaction

Next, values leading:

Row | effect of a mutation on the interaction [1] | effect of a mutation on the interaction [2] | Variant
5 | decreasing interaction | decreasing interaction | V91A;L92A;L147A;L148A
6 | disrupting interaction | disrupting interaction | V91A;L92A;L147A;L148A;Y213A;L214A
7 | – | decreasing interaction | V91A;L92A
